# Measurements published in IntAct's records for PubMed 9847329.
# B1: Protein Rep68 (Adeno-associated virus 2 (isolate Srivastava/1982)), P03132 (parent)
# chain: MPGFYEIVIKVPSDLDGHLPGISDSFVNWVAEKEWELPPDSDMDLNLIEQAPLTVAEKLQRDFLTEWRRVSKAPEALFFVQFEKGESYFHMHVLVETTGVKSMVLGRFLSQIREKLIQRIYRGIEPTLPNWFAVTKTRNGAGGGNKVVDECYIPNYLLPKTQPELQWAWTNMEQYLSACLNLTERKRLVAQHLTHVSQTQEQNKENQNPNSDAPVIRSKTSARYMELVGWLVDKGITSEKQWIQEDQASYISFNAASNSRSQIKAALDNAGKIMSLTKTAPDYLVGQQPVEDISSNRIYKILELNGYDPQYAASVFLGWATKKFGKRNTIWLFGPATTGKTNIAEAIAHTVPFYGCVNWTNENFPFNDCVDKMVIWWEEGKMTAKVVESAKAILGGSKVRVDQKCKSSAQIDPTPVIVTSNTNMCAVIDGNSTTFEHQQPLQDRMFKFELTRRLDHDFGKVTKQEVKDFFRWAKDHVVEVEHEFYVKKGGAKKRPAPSDADISEPKRVRESVAQPSTSDAEASINYADRLARGHSL
# Variants of: B1
# Settings: with tcp4_human SUB1, P53999
row,Variant,effect of a mutation on the interaction
1,K340H,disrupting interaction
